From patent publication US20200048371A1 (Zymeworks, published 2020)
Blank lines part the entries; values can stand above or below the binder they belong to.

Tests used:
Assay in all cases: homogeneous cell binding assay on transfected HEK293-6e cells as in Example 8 (data not shown)
[1] = target: T1, Human HER2 (human, UniProt P04626 23-1255)
T1 construct: whole, on cells
Description: (§1) Binding of constructs to target was assessed in HEK293-6e cells transiently expressing the target of interest.
(§2) Parental cells were maintained in 250 mL Erlenmeyer flasks (Corning, 431144) at 37° C., 5% CO2 in a rotating humidified incubator at 115 rpm. HEK293-6e cells were re-suspended to 1×10⁶ cells/mL in fresh Freestyle media before transfection. […] The DNA vectors that were used to express targets of interest were pTT5 vectors with full length targets of interest including Human Dectin-1, Human DEC205, Human CD40, Human HER2, Human ROR1 and mock vector containing GFP. The cells were incubated for 24 hours at 37° C. and 5% CO2 in a rotating humidified incubator at 115 rpm.
(§3) Construct samples were prepared at starting concentrations of 40 nM final in FACS buffer or 1×PBS pH 7.4 (Gibco, 1001023)+2% FBS in Eppendorf tubes. Samples were titrated in duplicate 1:4 down to 0.04 nM directly in the 384-well black optical bottom assay plate (Thermo Fisher, 142761). HEK293-6e cells expressing target of interest were harvested and re-suspended in FACS buffer at 10,000 cells per 30 μl. To visualize cell nuclei as a focusing channel, Vybrant™ DyeCycle™ Violet nuclear stain (Life Tech, V35003) was added to cells at 2 μM final concentration. To detect binding of test construct sample to cells, Goat anti-Human IgG Fc A647 (Jackson ImmunoResearch, 115-605-071) was added to cells at 0.6 μg/mL final. The cells were vortexed briefly to mix and plated at 10,000 cells/well. The plate was incubated at room temperature for 3 hours before scanning. Data analysis was performed on the CellInsight™ with the HCS high content screening platform (Thermo Scientific), using BioApplication “CellViability” with a 10× objective. Samples were scanned on the 385 nm channel to visualize nuclear staining and channel 650 nm to assess cell binding. The mean object average fluorescence intensity of A647 was measured on channel 2 to determine binding intensity on all cell conditions.

[2] = target: T2, Human CD40 (human, UniProt P25942 21-277)
T2 construct: whole, on cells
T2 sequence (P25942 21-277): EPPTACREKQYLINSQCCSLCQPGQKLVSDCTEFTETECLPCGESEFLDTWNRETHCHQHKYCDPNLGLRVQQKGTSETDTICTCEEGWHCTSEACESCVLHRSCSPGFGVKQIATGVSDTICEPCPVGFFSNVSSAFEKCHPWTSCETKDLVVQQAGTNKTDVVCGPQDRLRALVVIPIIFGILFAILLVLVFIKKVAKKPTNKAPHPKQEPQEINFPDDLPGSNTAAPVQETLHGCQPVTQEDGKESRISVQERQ
Description: as §1, §2, §3

[3] = target: T3, Human DEC205 (human, UniProt O60449 28-1722)
T3 construct: whole, on cells
T3 sequence (O60449 28-1722): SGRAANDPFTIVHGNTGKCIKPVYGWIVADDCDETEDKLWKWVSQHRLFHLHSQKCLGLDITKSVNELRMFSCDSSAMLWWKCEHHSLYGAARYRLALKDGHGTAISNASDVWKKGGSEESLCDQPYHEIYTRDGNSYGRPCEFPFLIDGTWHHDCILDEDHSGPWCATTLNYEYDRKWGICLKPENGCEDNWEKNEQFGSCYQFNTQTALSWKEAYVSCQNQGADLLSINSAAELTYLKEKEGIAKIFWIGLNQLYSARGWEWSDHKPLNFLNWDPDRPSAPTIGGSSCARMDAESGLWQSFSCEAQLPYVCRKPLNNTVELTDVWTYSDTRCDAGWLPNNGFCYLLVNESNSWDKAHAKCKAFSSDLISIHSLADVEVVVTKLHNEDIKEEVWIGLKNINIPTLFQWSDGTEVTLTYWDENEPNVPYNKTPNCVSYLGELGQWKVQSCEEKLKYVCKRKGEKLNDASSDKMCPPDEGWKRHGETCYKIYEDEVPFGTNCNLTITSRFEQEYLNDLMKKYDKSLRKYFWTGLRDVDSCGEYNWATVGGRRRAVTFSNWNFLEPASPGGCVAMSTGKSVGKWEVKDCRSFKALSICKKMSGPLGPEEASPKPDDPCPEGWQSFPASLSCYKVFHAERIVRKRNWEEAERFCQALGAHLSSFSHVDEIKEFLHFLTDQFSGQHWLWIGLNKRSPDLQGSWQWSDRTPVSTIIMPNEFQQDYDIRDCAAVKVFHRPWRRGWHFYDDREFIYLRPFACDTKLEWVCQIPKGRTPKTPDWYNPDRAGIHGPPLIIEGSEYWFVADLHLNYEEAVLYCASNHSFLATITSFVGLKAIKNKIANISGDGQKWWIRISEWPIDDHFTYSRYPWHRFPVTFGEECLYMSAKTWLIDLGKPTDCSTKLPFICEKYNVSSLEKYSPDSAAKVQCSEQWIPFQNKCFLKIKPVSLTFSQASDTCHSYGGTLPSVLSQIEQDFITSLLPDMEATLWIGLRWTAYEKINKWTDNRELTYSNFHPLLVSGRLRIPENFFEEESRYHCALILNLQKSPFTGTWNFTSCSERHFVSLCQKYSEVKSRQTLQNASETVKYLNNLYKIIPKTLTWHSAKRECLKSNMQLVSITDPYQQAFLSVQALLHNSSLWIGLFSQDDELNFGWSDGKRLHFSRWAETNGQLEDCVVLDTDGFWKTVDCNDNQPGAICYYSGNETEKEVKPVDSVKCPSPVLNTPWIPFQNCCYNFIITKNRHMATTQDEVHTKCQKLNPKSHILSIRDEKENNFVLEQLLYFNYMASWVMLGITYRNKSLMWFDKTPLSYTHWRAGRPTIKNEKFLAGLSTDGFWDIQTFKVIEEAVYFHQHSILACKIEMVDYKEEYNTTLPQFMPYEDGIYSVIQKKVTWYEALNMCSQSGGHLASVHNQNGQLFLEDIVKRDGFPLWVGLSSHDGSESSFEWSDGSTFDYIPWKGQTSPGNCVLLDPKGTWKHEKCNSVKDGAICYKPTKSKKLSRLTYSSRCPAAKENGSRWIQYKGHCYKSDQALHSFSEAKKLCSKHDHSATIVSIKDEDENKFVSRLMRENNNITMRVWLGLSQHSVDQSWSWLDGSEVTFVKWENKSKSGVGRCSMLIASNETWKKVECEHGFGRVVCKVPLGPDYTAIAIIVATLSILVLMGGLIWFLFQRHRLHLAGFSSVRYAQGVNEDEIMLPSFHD
Description: as §1, §2, §3

- binding result [1]: binds
- binding result [2]: binds
B1: construct 18532 (CD40 X HER2; 12E12, Pertuzumab; Fab x scFv) (bispecific antibody, human IgG1, kappa, L234A L235A)
heavy: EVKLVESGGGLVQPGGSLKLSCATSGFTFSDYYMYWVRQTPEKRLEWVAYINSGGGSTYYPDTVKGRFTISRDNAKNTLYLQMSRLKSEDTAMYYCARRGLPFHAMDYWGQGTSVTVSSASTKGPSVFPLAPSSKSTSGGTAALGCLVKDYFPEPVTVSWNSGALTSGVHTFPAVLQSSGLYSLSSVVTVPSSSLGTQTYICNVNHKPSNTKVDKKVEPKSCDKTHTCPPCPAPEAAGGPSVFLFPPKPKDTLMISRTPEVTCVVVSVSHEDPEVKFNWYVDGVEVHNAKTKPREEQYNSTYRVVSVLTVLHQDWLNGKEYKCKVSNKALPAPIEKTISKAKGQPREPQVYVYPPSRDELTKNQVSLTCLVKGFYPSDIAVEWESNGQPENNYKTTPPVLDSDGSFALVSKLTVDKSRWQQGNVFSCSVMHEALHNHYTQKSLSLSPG
light: DIQMTQTTSSLSASLGDRVTISCSASQGISNYLNWYQQKPDGTVKLLIYYTSILHSGVPSRFSGSGSGTDYSLTIGNLEPEDIATYYCQQFNKLPPTFGGGTKLEIKRTVAAPSVFIFPPSDEQLKSGTASVVCLLNNFYPREAKVQWKVDNALQSGNSQESVTEQDSKDSTYSLSSTLTLSKADYEKHKVYACEVTHQGLSSPVTKSFNRGEC
scFv: DIQMTQSPSSLSASVGDRVTITCKASQDVSIGVAWYQQKPGKAPKLLIYSASYRYTGVPSRFSGSGSGTDFTLTISSLQPEDFATYYCQQYYIYPATFGQGTKVEIKVEGGSGGSGGSGGSGGVDEVQLVESGGGLVQPGGSLRLSCAASGFTFADYTMDWVRQAPGKGLEWVGDVNPNSGGSIYNQRFKGRFTFSVDRSKNTLYLQMNSLRAEDTAVYYCARNLGPSFYFDYWGQGTLVTVSSAAEPKSSDKTHTCPPCPAPEAAGGPSVFLFPPKPKDTLMISRTPEVTCVVVSVSHEDPEVKFNWYVDGVEVHNAKTKPREEQYNSTYRVVSVLTVLHQDWLNGKEYKCKVSNKALPAPIEKTISKAKGQPREPQVYVLPPSRDELTKNQVSLLCLVKGFYPSDIAVEWESNGQPENNYLTWPPVLDSDGSFFLYSKLTVDKSRWQQGNVFSCSVMHEALHNHYTQKSLSLSPG
notes: also called v18532; Her2×CD40

- binding result [1]: binds
- binding result [3]: binds
B2: construct 18529 (DEC-205 X HER2; 3G9, Pertuzumab; Fab x scFv) (bispecific antibody, human IgG1, kappa, L234A L235A)
heavy: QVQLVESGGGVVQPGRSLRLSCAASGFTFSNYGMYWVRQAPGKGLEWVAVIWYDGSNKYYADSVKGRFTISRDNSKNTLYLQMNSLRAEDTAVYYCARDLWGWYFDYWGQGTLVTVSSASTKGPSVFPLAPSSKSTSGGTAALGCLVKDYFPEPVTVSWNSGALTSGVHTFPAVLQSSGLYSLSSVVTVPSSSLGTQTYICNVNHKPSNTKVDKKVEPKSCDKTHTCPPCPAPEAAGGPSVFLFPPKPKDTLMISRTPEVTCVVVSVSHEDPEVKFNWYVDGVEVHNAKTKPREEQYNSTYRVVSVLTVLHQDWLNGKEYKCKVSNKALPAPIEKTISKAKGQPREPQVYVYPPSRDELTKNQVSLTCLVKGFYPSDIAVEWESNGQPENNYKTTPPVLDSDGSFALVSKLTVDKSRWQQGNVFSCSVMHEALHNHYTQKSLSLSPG
light: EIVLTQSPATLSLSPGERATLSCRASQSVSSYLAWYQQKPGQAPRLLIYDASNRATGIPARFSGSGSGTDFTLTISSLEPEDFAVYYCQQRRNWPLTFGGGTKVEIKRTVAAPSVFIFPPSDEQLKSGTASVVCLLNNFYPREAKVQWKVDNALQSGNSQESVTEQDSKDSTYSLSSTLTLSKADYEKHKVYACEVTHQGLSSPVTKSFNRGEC
scFv: B1 scFv
notes: Three polypeptides A, B and C; also called Her2×Dec205
